In patent US20050153872A1, “Methods and compositions for the treatment of infection” (priority 2004, published 2005):

Assays:
[1] = test system: Candida albicans ATCC 10231; experiment: In vitro cell growth inhibition assay (OD595, filaments); conditions: Ph-CA 5 μg/ml; Ph-SA 5 μg/ml; ampicillin 50 μg/ml; amphotericin B 200 ng/ml; fluconazole 3 μg/ml
[2] = test system: Staphylococcus aureus ATCC 29213; experiment: MIC against challenge strain (Table 3); format: cell-based
[3] = test system: S. aureus strain ATCC BAA-42 MRSA; conditions: all agents 5 μg/ml
Escherichia coli 02-1-65 [4] = experiment: MIC against challenge strain (Table 3); format: cell-based
[5] = test system: Staphylococcus aureus MRSA 02-18; experiment: microbe, parasite or virus in culture; format: cell-based; conditions: Staphylococcus aureus MRSA 02-18
[6] = test system: S. epidermidis BQIOC 26069; format: cell-based; conditions: all agents at 2 ug/ml
Experimental: All agents were at 2 ug/ml.

[7] = test system: Staphylococcus epidermidis MRSE strain (25); experiment: In vitro antibacterial activity (MIC), clinical isolates; format: cell-based; conditions: 25 MRSE clinical isolates
Procedure, shortened: (§1)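 Clinical isolates collected in Sichuan and Beijing in 2002, identified with the API system, were exposed to test compound to determine MIC50, MIC90 and MIC range. S. aureus ATCC25923, 29213 and BAA-42 served as control strains.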

Enterococcus (20) = experiment: as above; format: cell-based; conditions: 20 Enterococcus clinical isolates
Procedure, shortened: as §1

[8] = test system: Staphylococcus aureus MSSA strain (88); experiment: as above; format: cell-based; conditions: 88 MSSA clinical isolates
Procedure, shortened: as §1

[9] = test system: Staphylococcus aureus MRSA strain (80); experiment: as above; format: cell-based; conditions: 80 MRSA clinical isolates
Procedure, shortened: as §1

[10] = test system: Staphylococcus epidermidis MSSE strain (21); experiment: as above; format: cell-based; conditions: 21 MSSE clinical isolates
Procedure, shortened: as §1

Acenetobactor (20) = experiment: as above; format: cell-based; conditions: 20 Acenetobactor clinical isolates
Procedure, shortened: as §1

[11] = test system: SMMC-7721 human hepatocellular carcinoma cells; experiment: Toxicity assessment in mammalian cells; format: cell-based; conditions: about 200 micrograms per ml; 48 hours incubation
Experimental: (§2) To assess potential toxicity to mammalian cells, HL-7702 human liver cells and SMMC-7721 human hepatocellular carcinoma cells (Institute of Biochemistry & Cell Biology, Shanghai, Chinese Academy of Science) were grown in 1640 medium and treated with various fusion peptides. The concentration of antivirus and antibacterial peptides used for treating the cells was about 200 micrograms per ml. Equal amounts of stock solution (20 mM PBS, pH 7.4) was added to the control cells.

[12] = test system: HL-7702 human liver cells; experiment: Toxicity assessment in mammalian cells; format: cell-based; conditions: about 200 micrograms per ml; 48 hours incubation
Experimental: as §2

[13] = test system: Aspergillus niger SWA 1011 strain; experiment: In vitro cell growth inhibition assay; conditions: Ph-CA 5 μg/ml; Ph-SA 5 μg/ml; amphotericin B 200 ng/ml; Fluconazole 3 μg/ml
ATCC 700802 VRE cells = experiment: Electron micrographs of bactericidal effects of Ph-EF; format: cell-based, Enterococcus; conditions: Ph-EF 10 ug/ml 0.5 and 2 hr; Ph-SA 10 ug/ml 2 hr; vancomycin 20 ug/ml 2 hr
Experimental: Electron Microraphs of Bactericidal Effects of Ph-EF Against ATCC 700802 VRE Cells (1% Phosphotungstic Acid, 15.000×).
Bactericidal effects of ph-EF were tested and monitored by electron microscopy. FIG. 16 depicts electron micrographs of (a) untreated cells; (b) and (c) cells treated with Ph-EF (10 ug/ml) for 0.5 hr; (d) untreated cells for 2 hr; (e) cells treated by Ph-SA (10 ug/ml) for 2 hr; (f) cells treated with vancomycin (20 ug/ml) for 2 hr; (g) and (h) cells treated with Ph-EF (10 ug/ml) for 2 hrs.

[14] = test system: Enterococcus faecalis ATCC 700802; experiment: microbe, parasite or virus in culture; format: cell-based; conditions: Enterococcus faecalis, ATCC700802
[15] = test system: Staphylococcus aureus MRSA 02-18; experiment: In vivo protection of infected mice; set-up: species or system Kungming mice; conditions: mice, i.p. infection 1.7 × 10^5 cfu/ml
Procedure, shortened: (§3)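 Kunming mice (18–22 g, both sexes) were infected intraperitoneally with a lethal dose of staphylococci, enterococci or E. coli; agents were diluted in sterile water to 10, 5 and 2.5 mg/L. Deaths were counted every 24 h over 7–14 days.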

[16] = test system: Staphylococcus aureus MRSA BAA-42; experiment: In vivo protection of infected mice; set-up: species or system Kungming mice; conditions: mice, i.p. infection 5.5 × 10^5 cfu/ml
Procedure, shortened: as §3

[17] = test system: Enterococcus faecalis ATCC 700802; experiment: In vivo protection of infected mice; set-up: species or system Kungming mice; conditions: mice, i.p. infection 8.0 × 10^6 cfu/ml
Procedure, shortened: as §3

MRSA strain ATCC BAA-42 = experiment: Electron micrographs of bactericidal effects; format: cell-based, S. aureus; conditions: Ph-SA 50 μg/ml 0.5 hrs; wild type colicin Ia 50 μg/ml 2 hrs; AgrDI 10 μg/ml 2 hrs
Text: Electron Micrographs of Bactericidal Effects of Ph-SA1 Against ATCC BAA-42 MRSA Strain Cells (1% Phosphotungstic Acid. 25,000×)

[18] = test system: Staphylococcus aureus MRSA BAA-42; experiment: microbe, parasite or virus in culture; format: cell-based; conditions: Staphylococcus aureus MRSA BAA-42
[19] = test system: Staphylococcus aureus ATCC 29213; experiment: In vivo protection of infected mice; set-up: species or system Kungming mice; conditions: i.p. infection 3.6 × 10^5 cfu/ml
Procedure, shortened: as §3

Escherichia coli 02-1-65 [20] = experiment: In vivo protection of infected mice; set-up: species or system Kungming mice; conditions: i.p. infection 3.3 × 10^5 cfu/ml
Procedure, shortened: as §3

[21] = 1st Time, i.v. treatment after one hour
[22] = 2nd Time (value in parentheses), i.v. treatment

B1: Ph-SA1: Colicin Ia linked to the AgrDI pheromone of S. aureus (protein)
chain: SDPVRITNPGAESLGYDSDGHEIMAVDIYVNPPRVDVFHGTPPAWSSFGNKTIWGGNEWVDDSPTRSDIEKRDKEITAYKNTLSAQQKENENKRTEAGKRLSAAIAAREKDENTLKTLRAGNADAADITRQEFRLLQAELREYGFRTEIAGYDALRLHTESRMLFADADSLRISPREARSLIEQAEKRQKDAQNADKKAADMLAEYERRKGILDTRLSELEKNGGAALAVLDAQQARLLGQQTRNDRAISEARNKLSSVTESLNTARNALTRAEQQLTQQKNTPDGKTIVSPEKFPGRSSTNHSIVVSGDPRFAGTIKITTSAVIDNRANLNYLLSHSGLDYKRNILNDRNPVVTEDVEGDKKIYNAEVAEWDKLRQRLLDARNKITSAESAVNSARNNLSARTNEQKHANDALNALLKEKENIRNQLSGINQKIAEEKRKQDELKATKDAINFTTEFLKSVSEKYGAKAEQLAREMAGQAKGKKIRNVEEALKTYEKYRADINKKINAKDRAAIAAALESVKLSDISSNLNRFSRGLGYAGKFTSLADWITEFGKAVRTENWRPLFVKTETIIAGNAATALVALVFSILTGSALGIIGYGLLMAVTGALIDESLVEKANKFWGIYSTCDFIM
modifications: Colicin attached to Pheromone peptide encoding Staphylococcus aureus AgrDI
With B1 the “effect on growth of Candida albicans” value [1] was “no effect on the growth”, the MIC [2] was 0.25 µg/mL and the inhibition of growth [3] was “best inhibitory effects”. For the same molecule, the MIC (Escherichia coli 02-1-65 [4]) was 1 µg/mL, the MIC [5] was 0.5 µg/mL and the “inhibition of cell growth” value [6] was “only partially inhibited”. The MIC50 [7] was >64 µg/mL, the MIC90 [7] was >64 µg/mL and the MIC50 (Enterococcus (20)) was >64 µg/mL. The MIC90 (Enterococcus (20)) was >64 µg/mL, the MIC50 [8] was 0.5 µg/mL and the MIC90 [8] was 16 µg/mL. The MIC50 [9] was 16> mg/l, the MIC90 [9] was 16 µg/mL and the “MIC Scope” value [9] was <0.0005˜64 mg/l. The MIC50 [10] was 0.25 µg/mL, the MIC90 [10] was 16 µg/mL and the “MIC Scope” value [10] was 0.125˜32 mg/l. The MIC50 (Acenetobactor (20)) was 32 µg/mL, the MIC90 (Acenetobactor (20)) was >64 µg/mL and the “cell morphology and cell growth (toxicity)” value [11] was “not toxic to the liver cells”. For the same molecule, the “cell morphology and cell growth (toxicity)” value [12] was “not toxic to the liver cells”, the “effect on growth of Aspergillus niger” value [13] was “no effect on the growth” and the “morphological alteration in VRE cells (electron micrographs)” value (ATCC 700802 VRE cells) was “no morphological alteration”. The MIC [14] was 4 µg/mL, the ED50 [15, 21] was 3.84 mg/kg and the ED50 [15, 22] was “(4.24) mg/kg”. The ED50 [16, 21] was 4.32 mg/kg, the ED50 [16, 22] was “(4.23) mg/kg” and the ED50 [17, 21] was 4.23 mg/kg. For the same molecule, the ED50 [17, 22] was “(3.70) mg/kg”, the “bactericidal effect / effect on cell growth (electron micrographs)” value (MRSA strain ATCC BAA-42) was “killed BAA-42 MRSA cells” and the MIC [18] was 0.5 µg/mL. The ED50 [19, 21] was 10.35 mg/kg, the ED50 [19, 22] was “(8.87) mg/kg” and the ED50 (Escherichia coli 02-1-65 [20]; [21]) was 3.14 mg/kg. The ED50 (Escherichia coli 02-1-65 [20]; [22]) was “(3.12) mg/kg”.
